Measured values published in patent publication US20170096495A1 (Hoffmann-La Roche, published 2017).
Read-outs that look alike come from different tables or passages of the source.

How the values were obtained:
[1] = biological target: T1, human STEAP-1 (Six-transmembrane epithelial antigen of prostate 1) (human, UniProt Q9UHE8 1-339); assay: cell-based or functional assay
[2] = biological target: T1, human STEAP-1 (Six-transmembrane …); assay: cell-based or functional assay; remark: listed apart in the source
[3] = biological target: T1, human STEAP-1 (Six-transmembrane …); assay: cell-based or functional assay; remark: listed apart in the source
[4] = biological target: T1, human STEAP-1 (Six-transmembrane …); assay: cell-based or functional assay; remark: listed apart in the source
human CD3 = biological target: T2, human CD3 (human, UniProt P07766 23-207); assay: flow cytometry on Jurkat cells
T2 construct: In the assays CD3 stood as the native complex on Jurkat cells, Jurkat-NFAT reporter cells or primary human T cells; also called CD3 epsilon

[5] = biological target: T1, human STEAP-1 (Six-transmembrane …); assay: cell-based or functional assay; remark: listed apart in the source
[6] = biological target: T1, human STEAP-1 (Six-transmembrane …); assay: flow cytometry on CHO-hSTEAP1 clone 2 cells, anti-human Fc secondary antibody
Protocol: The binding of STEAP-1 TCB molecules was tested, using STEAP-1-expressing CHO-hSTEAP1, clone 2 cells (an epithelial cell line derived from hamster ovary, that was transfected to stably overexpress human STEAP-1) and CD3-expressing immortalized T lymphocyte cells (Jurkat, DSMZ #ACC 282).
Briefly, adherent CHO-hSTEAP1 cells were harvested, using Cell Dissociation Buffer (Gibco, #13151014) counted, checked for viability and re-suspended at 2×10⁶ cells/ml in FACS buffer (100 μl PBS 0.1% BSA). Jurkat suspension cells were also harvested, counted and checked for viability. 100 μl of cell suspension (containing 0.2×10⁶ cells) were incubated in round-bottom 96-well plate for 30 min at 4° C. with increasing concentrations of the STEAP-1 TCB (31 pM-500 nM), washed twice with cold PBS containing 0.1% BSA (FACS buffer), re-incubated for further 30 min at 4° C. with the 1:50 pre-diluted FITC- or Alexa Fluor 647-conjugated AffiniPure F(ab′)2 Fragment goat-human IgG Fcg Fragment Specific secondary antibody (Jackson Immuno Research Lab, FITC #109-096-098, binding to Jurkats, or Jackson Immuno Research Lab, Alexa Fluor 647 #109-606-008, for binding to CHO-hSTEAP1, dilutions in FACS buffer) and washed twice with cold PBS 0.1% BSA. […] Staining was analyzed by FACS using a FACS Canto II (Software FACS Diva). […]

[7] = biological target: T1, human STEAP-1 (Six-transmembrane …); assay: cell-based or functional assay; remark: listed apart in the source

T1 sequence (Q9UHE8 whole entry): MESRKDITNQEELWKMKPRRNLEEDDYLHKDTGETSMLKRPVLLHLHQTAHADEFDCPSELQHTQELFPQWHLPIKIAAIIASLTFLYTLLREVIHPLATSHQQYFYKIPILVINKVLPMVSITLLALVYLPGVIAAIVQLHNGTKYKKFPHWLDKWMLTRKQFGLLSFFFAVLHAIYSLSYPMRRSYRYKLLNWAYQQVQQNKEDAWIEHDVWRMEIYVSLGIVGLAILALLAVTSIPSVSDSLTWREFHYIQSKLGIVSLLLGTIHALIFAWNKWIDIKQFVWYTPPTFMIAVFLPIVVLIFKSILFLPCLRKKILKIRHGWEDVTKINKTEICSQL
T2 sequence (P07766 23-207 limits assumed): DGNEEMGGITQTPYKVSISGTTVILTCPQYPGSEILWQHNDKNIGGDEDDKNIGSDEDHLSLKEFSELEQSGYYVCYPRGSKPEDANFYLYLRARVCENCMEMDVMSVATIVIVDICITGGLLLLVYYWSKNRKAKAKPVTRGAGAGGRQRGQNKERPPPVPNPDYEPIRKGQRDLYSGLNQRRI

B1: STEAP-1 TCB Molecule A: "2+1 IgG CrossFab, inverted" with charge modifications (VH/VL exchange in CD3 binder, charge modification in STEAP-1 binders) (bispecific antibody)
heavy 1: not shown
heavy 2: EVQLVESGGGLVQPGGSLRLSCAVSGYSITSDYAWNWVRQAPGKGLEWVGYISNSGSTSYNPSLKSRFTISRDTSKNTLYLQMNSLRAEDTAVYYCARERNYDYDDYYYAMDYWGQGTLVTVSSASTKGPSVFPLAPSSKSTSGGTAALGCLVEDYFPEPVTVSWNSGALTSGVHTFPAVLQSSGLYSLSSVVTVPSSSLGTQTYICNVNHKPSNTKVDEKVEPKSCDKTHTCPPCPAPEAAGGPSVFLFPPKPKDTLMISRTPEVTCVVVDVSHEDPEVKFNWYVDGVEVHNAKTKPREEQYNSTYRVVSVLTVLHQDWLNGKEYKCKVSNKALGAPIEKTISKAKGQPREPQVCTLPPSRDELTKNQVSLSCAVKGFYPSDIAVEWESNGQPENNYKTTPPVLDSDGSFFLVSKLTVDKSRWQQGNVFSCSVMHEALHNHYTQKSLSLSP
light 1: DIQMTQSPSSLSASVGDRVTITCKSSQSLLYRSNQKNYLAWYQQKPGKAPKLLIYWASTRESGVPSRFSGSGSGTDFTLTISSLQPEDFATYYCQQYYNYPRTFGQGTKVEIKRTVAAPSVFIFPPSDRKLKSGTASVVCLLNNFYPREAKVQWKVDNALQSGNSQESVTEQDSKDSTYSLSSTLTLSKADYEKHKVYACEVTHQGLSSPVTKSFNRGEC
light 2: EVQLLESGGGLVQPGGSLRLSCAASGFTFSTYAMNWVRQAPGKGLEWVSRIRSKYNNYATYYADSVKGRFTISRDDSKNTLYLQMNSLRAEDTAVYYCVRHGNFGNSYVSWFAYWGQGTLVTVSSASVAAPSVFIFPPSDEQLKSGTASVVCLLNNFYPREAKVQWKVDNALQSGNSQESVTEQDSKDSTYSLSSTLTLSKADYEKHKVYACEVTHQGLSSPVTKSFNRGEC
EC50 [nM], activation of Jurkat-NFAT reporter cells (luminescence after 6 h) with LnCaP cells [1]: 3.58 nM | EC50 [pM] 24 h, T-cell mediated lysis of LnCaP cells (LDH release) [2]: 36.8 pM | EC50 [pM] 48 h, T-cell mediated lysis of LnCaP cells (LDH release) [2]: 31.4 pM | EC50 [nM], activation of Jurkat-NFAT reporter cells (luminescence after 6 h), presence of CHO-hSTEAP1 [3]: 0.1 nM | EC50 (pM), activation of primary T cells with LnCaP cells, 48 h: % CD4 + CD25+ [4]: 447 pM | EC50 (pM), activation of primary T cells with LnCaP cells, 48 h: % CD4 + CD69+ [4]: 300 pM | EC50 (pM), activation of primary T cells with LnCaP cells, 48 h: % CD8 + CD25+ [4]: 271 pM | EC50 (pM), activation of primary T cells with LnCaP cells, 48 h: % CD8 + CD69+ [4]: 124 pM | binding result (human CD3): binds | EC50 [nM], activation of Jurkat-NFAT reporter cells (luminescence after 6 h), presence of CHO-hSTEAP1 [5]: 7.19 nM | EC50 [nM], activation of Jurkat-NFAT reporter cells (luminescence after 6 h), presence of LnCaP cells [5]: 1.36 nM | EC50 [6]: 20.2 nM | EC50 [pM] 24 h, STEAP-1 TCB-mediated lysis of LnCaP cells (LDH release) [7]: 13.7 pM | EC50 [pM] 48 h, STEAP-1 TCB-mediated lysis of LnCaP cells (LDH release) [7]: 6.35 pM
